# Assay results from patent US20250026849A1 (ARCELLX, published 2025).
# T1: CD123 (Homo sapiens (Human), UniProt P26951 19-305, limits assumed)
# T1 construct: The CD123 construct used in the ELISA is not described; also called CD123-Signal
# T1 sequence: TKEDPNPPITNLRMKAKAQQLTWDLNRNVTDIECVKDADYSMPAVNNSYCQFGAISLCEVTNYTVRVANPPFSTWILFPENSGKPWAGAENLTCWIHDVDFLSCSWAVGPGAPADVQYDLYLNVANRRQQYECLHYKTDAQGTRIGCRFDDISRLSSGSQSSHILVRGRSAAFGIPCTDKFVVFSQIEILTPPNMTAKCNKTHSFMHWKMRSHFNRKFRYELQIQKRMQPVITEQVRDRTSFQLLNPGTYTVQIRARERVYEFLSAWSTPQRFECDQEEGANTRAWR
# Target: T1, CD123
# Assay: ELISA
# Design: unit not given here
row,Binder,ELISA_avg
1,D domain of SEQ ID NO: 502 (designed binder) MGSWEEFKEDLAEIKVWLEALGGSEAELAWFEMGIADFEDGLQFYKGKGNPEVEALRKEAAAIRDELQAYRHN,4.3
2,D domain of SEQ ID NO: 503 (designed binder) MGSWHWFKEDLANIKDWLEALGGSEAELAWFEDNIADFEGDLQVYKGKGNPEVEALRKEAAAIRDELQAYRHN,3.3
3,D domain of SEQ ID NO: 512 (designed binder) MGSWWEFKEDLAEIKWFLEALGGSEAELAWFEHDIAKFEFELQYYKGKGNPEVEALRKEAAAIRDELQAYRHN,5.1
4,D domain of SEQ ID NO: 521 (designed binder) MGSWAWFKEDLAEIKVFLEALGGSEAELAEFEVSIADFEYELQDYKGKGNPEVEALRKEAAAIRDELQAYRHN,3.5
5,D domain of SEQ ID NO: 526 (designed binder) MGSWQDFKEDLAWIKYELEALGGSEAELAFFEYDIAIFENNLQHYKGKGNPEVEALRKEAAAIRDELQAYRHN,3.2
6,D domain of SEQ ID NO: 500 (designed binder) MGSWEFFKEVLAEIKYDLEALGGSEAELAWFETDIAGFEIDLQVYKGKGNPEVEALRKEAAAIRDELQAYRHN,8.2
7,D domain of SEQ ID NO: 520 (designed binder) MGSWMEFKEELAEIKYILEALGGSEAELAWFEQSIADFEYDLQDYKGKGNPEVEALRKEAAAIRDELQAYRHN,5
8,D domain of SEQ ID NO: 501 (designed binder) MGSWVFFKEDLATIKNDLEALGGSEAELAWFEMMIADFEADLQYYKGKGNPEVEALRKEAAAIRDELQAYRHN,3.1
9,D domain of SEQ ID NO: 491 (designed binder) MGSWDLFKWELAEIKLGLEALGGSEAELAEFEYDIAWFEEDLQDYKGKGNPEVEALRKEAAAIRDELQAYRHN,3.4
10,D domain of SEQ ID NO: 492 (designed binder) MGSWIFFKQDLAEIKLNLEALGGSEAELAWFEDDIAWFESHLQDYKGKGNPEVEALRKEAAAIRDELQAYRHN,3.8
11,D domain of SEQ ID NO: 514 (designed binder) MGSWNEFKDDLAMIKMTLEALGGSEAELAWFEHDIAEFEDDLQWYKGKGNPEVEALRKEAAAIRDELQAYRHN,3.5
12,D domain of SEQ ID NO: 515 (designed binder) MGSWTFFKDDLAEIKWMLEALGGSEAELAWFESDIAYFEDELQWYKGKGNPEVEALRKEAAAIRDELQAYRHN,3.3
13,D domain of SEQ ID NO: 513 (designed binder) MGSWEWFKSDLASIKWELEALGGSEAELAWFEHDIAEFEEDLQWYKGKGNPEVEALRKEAAAIRDELQAYRHN,5.7
14,D domain of SEQ ID NO: 517 (designed binder) MGSWSMFKDDLAEIKASLEALGGSEAELAWFEDDIAWFEDDLQHYKGKGNPEVEALRKEAAAIRDELQAYRHN,5.2
15,D domain of SEQ ID NO: 516 (designed binder) MGSWSDFKDDLAEIKMILEALGGSEAELAYFENDIAWFEDDLQEYKGKGNPEVEALRKEAAAIRDELQAYRHN,4.7
16,D domain of SEQ ID NO: 518 (designed binder) MGSWQYFKDDLAEIKMVLEALGGSEAELAWFEADIAMFEDDLQIYKGKGNPEVEALRKEAAAIRDELQAYRHN,3.6
17,D domain of SEQ ID NO: 525 (designed binder) MGSWVLFKEELAYIKFELEALGGSEAELALFENVIAIFESNLQNYKGKGNPEVEALRKEAAAIRDELQAYRHN,3.5
18,D domain of SEQ ID NO: 494 (designed binder) MGSWVTFKDELADIKDFLEALGGSEAELAFFEVDIAEFEAELQFYKGKGNPEVEALRKEAAAIRDELQAYRHN,7.6
19,D domain of SEQ ID NO: 498 (designed binder) MGSWYVFKDELAEIKQFLEALGGSEAELAWFEDDIAEFETQLQHYKGKGNPEVEALRKEAAAIRDELQAYRHN,9.9
20,D domain of SEQ ID NO: 495 (designed binder) MGSWVYFKDELADIKDFLEALGGSEAELAEFEEDIATFEYDLQWYKGKGNPEVEALRKEAAAIRDELQAYRHN,4.6
21,D domain of SEQ ID NO: 508 (designed binder) MGSWSWFKEDLAEIKMELEALGGSEAELAYFEWYIAEFEFQLQHYKGKGNPEVEALRKEAAAIRDELQAYRHN,4.8
22,D domain of SEQ ID NO: 511 (designed binder) MGSWSWFKEDLASIKAVLEALGGSEAELAFFESDIAEFEQELQYYKGKGNPEVEALRKEAAAIRDELQAYRHN,6.9

row,Binder,ELISA_avg
1,D domain of SEQ ID NO: 524 (designed binder) MGSWYIFKEDLAEIKEELEALGGSEAELAYFEEEIALFEMELQWYKGKGNPEVEALRKEAAAIRDELQAYRHN,11.1
2,D domain of SEQ ID NO: 509 (designed binder) MGSWSWFKQDLADIKIQLEALGGSEAELAWFEWDIAEFEFELQDYKGKGNPEVEALRKEAAAIRDELQAYRHN,4
3,D domain of SEQ ID NO: 510 (designed binder) MGSWSWFKEDLADIKFELEALGGSEAELAWFELDIADFEQALQQYKGKGNPEVEALRKEAAAIRDELQAYRHN,6.8
4,D domain of SEQ ID NO: 523 (designed binder) MGSWYDFKYDLAEIKMDLEALGGSEAELAQFEFDIAFFEEELQDYKGKGNPEVEALRKEAAAIRDELQAYRHN,3.2
5,D domain of SEQ ID NO: 499 (designed binder) MGSWIFFKEQLAIIKWELEALGGSEAELAWFEDDIAAFEDDLQFYKGQGNPEVEALRKEAAAIRDELQAYRHN,15
6,D domain of SEQ ID NO: 529 (designed binder) MGSWYMFKEELADIKWYLEALGGSEAELAWFEDDIAGFEWDLQAYKGKGNPEVEALRKEAAAIRDELQAYRHN,7
7,D domain of SEQ ID NO: 519 (designed binder) MGSWSFFKDDLAEIKYFLEALGGSEAELAMFEQTIAEFEYDLQDYKGKGNPEVEALRKEAAAIRDELQAYRHN,10.1
8,D domain of SEQ ID NO: 528 (designed binder) MGSWYDFKEDLADIKWMLEALGGSEAELAEFENVIAYFENDLQEYKGKGNPEVEALRKEAAAIRDELQAYRHN,8
9,D domain of SEQ ID NO: 504 (designed binder) MGSWFWFKEDLAFIKEDLEALGGSEAELAWFEDGIAFFEWDLQDYKGKGNPEVEALRKEAAAIRDELQAYRHN,13.7
10,D domain of SEQ ID NO: 522 (designed binder) MGSWYEFKFDLAEIKEQLEALGGSEAELALFEDDIAFFEYDLQNYKGKGNPEVEALRKEAAAIRDELQAYRHN,4.6
11,D domain of SEQ ID NO: 507 (designed binder) MGSWNWFKEDLAIIKMDLEALGGSEAELAWFEHNIAGFEFELQGYKGKGNPEVEALRKEAAAIRDELQAYRHN,3.1
12,D domain of SEQ ID NO: 506 (designed binder) MGSWHWFKEDLAIIKQDLEALGGSEAELATFEQWIAEFEWDLQEYKGKGNPEVEALRKEAAAIRDELQAYRHN,5.5
13,D domain of SEQ ID NO: 505 (designed binder) MGSWQWFKEDLAEIKHDLEALGGSEAELAWFEDFIAQFEFDLQWYKGKGNPEVEALRKEAAAIRDELQAYRHN,3.8
14,D domain of SEQ ID NO: 527 (designed binder) MGSWDHFKNDLAWIKKHLEALGGSEAELAEFEAVIAYFELYLQGYKGKGNPEVEALRKEAAAIRDELQAYRHN,3.3
15,D domain of SEQ ID NO: 487 (designed binder) MGSWEFFKYELADIKDELEALGGSEAELAWFEEDIATFEEWLQGYKGKGNPEVEALRKEAAAIRDELQAYRHN,3.4
16,D domain of SEQ ID NO: 496 (designed binder) MGSWETFKYELAEIKDYLEALGGSEAELAWFEDDIAEFEFELQYYKGKGNPEVEALRKEAAAIRDELQAYRHN,4.4
17,D domain of SEQ ID NO: 488 (designed binder) MGSWQTFKDELAHIKWELEALGGSEAELAWFEWDIANFEEELQEYKGKGNPEVEALRKEAAAIRDELQAYRHN,5.5
18,D domain of SEQ ID NO: 490 (designed binder) MGSWNSFKDELAEIKAELEALGGSEAELAFFEEDIAWFEEHLQQYKGKGNPEVEALRKEAAAIRDELQAYRHN,3.3
19,D domain of SEQ ID NO: 493 (designed binder) MGSWHLFKWTLAEIKYELEALGGSEAELAWFEDDIATFEEELQWYKGKGNPEVEALRKEAAAIRDELQAYRHN,4
20,D domain of SEQ ID NO: 489 (designed binder) MGSWYWFKEELAFIKWELEALGGSEAELALFEEDIAYFEEMLQEYKGKGNPEVEALRKEAAAIRDELQAYRHN,9.4
21,D domain of SEQ ID NO: 497 (designed binder) MGSWNTFKYELAEIKHFLEALGGSEAELAMFEDDIAMFEWELQEYKGKGNPEVEALRKEAAAIRDELQAYRHN,5
